Values of other authors as cited in patent US5747454A, “Chromogranin peptides” (Albert Einstein College of Medicine of Yeshiva University, priority 1995, dated 1998).

Tested on: primary cultures of parathyroid cells

B1: Chromogranin A: large, acidic protein found in the secretory granules of endocrine and neuroendocrine tissues including the parathyroid (protein, UniProt P10645 19-457, looked up)
Chromogranin-A: LPVNSPMNKGDTEVMKCIVEVISDTLSKPSPMPVSQECFETLRGDERILSILRHQNLLKELQDLALQGAKERAHQQKKHSGFEDELSEVLENQSSQAELKEAVEEPSSKDVMEKREDSKEAEKSGEATDGARPQALPEPMQESKAEGNNQAPGEEEEEEEEATNTHPPASLPSQKYPGPQAEGDSEGLSQGLVDREKGLSAEPGWQAKREEEEEEEEEAEAGEEAVPEEEGPTVVLNPHPSLGYKEIRKGESRSEALAVDGAGKPGAEEAQDPEGKGEQEHSQQKEEEEEMAVVPQGLFRGGKSGELEQEEERLSKEWEDSKRWSKMDQLAKELTAEKRLEGQEEEEDNRDSSMKLSFRARAYGFRGPGPQLRRGWRPSSREDSLEAGLPLQVRGYPEEKKEEEGSANRRPEDQELESLSAIEAELEKVAHQLQALRRG
In the case of B1, the “inhibition of parathyroid hormone secretion” value is given as “inhibit parathyroid hormone secretion”.
